From patent US10813788B2, “Implantable therapeutic device” (ForSight Vision4, Inc., priority 2009, dated 2020)
Where “and” joins values, the source holds several entries; their conditions need not be identical. Equal values may be shown once. Read-outs that look alike come from different tables or passages of the source.

Experiments:
[1] = amino acid side chain; cited from earlier work
[2] = Solubility of triamcinolone acetonide; details: suspension, in the buffer at 37° C. when implanted
[3] = Osmolarity of saline and commercial formulations (Table 1B, calculations); type: physicochemical; details: Summary of Calculations
Description: The formulation of therapeutic agent injected into therapeutic device 100 may comprise many known formulations of therapeutic agents, and the formulation therapeutic agent comprises an osmolarity suitable for release for an extended time from device 100.
The vitreous humor of the eye comprises an osmolarity of about 290 mOsm to about 320 mOsm. Formulations of therapeutic agent having an osmolarity from about 280 mOsm to about 340 mOsm are substantially isotonic and substantially iso-osmotic with respect to the vitreous humor of the eye. Although the formulations listed in Table 1B are substantially iso-osmotic and isotonic with respect to the vitreous of the eye and suitable for injection into the therapeutic device, the formulation of the therapeutic agent injected into the therapeutic device can be hypertonic (hyper-osmotic) or hypotonic (hypo-osmotic) with respect to the tonicity and osmolarity of the vitreous. […]

[4] = RRI for Avastin of porous frits characterised by gas flow, Example 17C (Table 7); type: physicochemical
Description: The flow through the porous structure can be measured with a decay time of the gas pressure, for example with the flow rate across the porous structure with a pressure drop across the porous frit structure, as described herein. The flow rate and RRI can be determined based on the media grade of the material, for example as commercially available media grade material available from Mott Corp. The therapeutic agent can be measured through the porous structure, or a similar test molecule. […] Based on the teachings described herein, a person of ordinary skill in the art can conduct experiments to determine empirically the correspondence of flow rate with a gas to the release rate of the therapeutic agent.

[5] = Measured release of Avastin through porous frit structures, Examples 12-13; type: physicochemical; details: for RRI (mm): single devices; for determined RRI: reservoir 20 uL
Description: For the analysis of data up to 130 days, the first data point is excluded from the fit because the model assumes the maximum delivery rate occurs at time zero while there is some startup time often associated with measured release profiles. The startup time may be related to the time it takes to displace all of the air in the frit. Use of different techniques to displace the air in the frit may reduce the startup time.

[6] = as above; type: physicochemical
[7] = Measured release of Lucentis through porous frit structures, Example 15B; type: physicochemical; details: 10 mg/mL Lucentis, 30 uL, 37 C
Description: All porous frit structures are 316L SS, Mott Corporation.
The diameter ranged from 0.031″ to 0.038″, and the length ranged from 0.029 to 0.049. The media grade ranged from 0.1 to 0.3, and the RRI ranged from 0.014 to 0.090.
Although some of the measurements were excluded, this exclusion is appropriate and associated with in vitro testing conditions that differ substantially from the in vivo model. Five devices were excluded due to bubble growth (10%), and four were excluded due to receiver volume issues at one timepoint for that device (8%). The latter can be an experimental error associated with the volume of the receiver below the assumed value due to evaporation from inadequately sealed vials or due to pipetting error. In some instances the in vitro experimental test apparatus can be sensitive to bubble formation that may differ substantially from the in vivo model as the living eye can resorb oxygen from the therapeutic devices. Bubbles can form as receiver fluid is heated to 37° C. and gas concentrations are greater than their solubilities at 37° C. To minimize the occurrence of bubble formation, receiver solutions were degassed before insertion of the devices.

[8] = human eye; cited from earlier work
[9] = cited from earlier work; for half-life in the vitreous: rabbit and monkey
[10] = Measured release of ranibizumab 40 and 100 mg/mL from a population of devices, Example C; type: physicochemical; details: at 15 weeks, 25 uL, RRI 0.02
Protocol: Therapeutic devices having stainless steel porous frit structures and formulations were prepared in accordance with Examples A and B. The devices had volumes of 25 uL and an RRI of 0.02.
Pressure decay tests of the assembled porous frit structures were conducted as described herein.
Eighteen devices were injected with the 100 mg/mL formulation and 18 devices were injected with the 40 mg/mL formulation. However, measurements of some devices were stopped for other assays every 4 months so only 6 devices for each formulation have release data through 180 days. The rate of release was measured for 16 weeks, and the amount release after each 2 week interval determined. […] The data indicates a measured rate of 3.5 and 8.1 ug/day at 15 weeks, for the 40 and 100 mg/mL formulation injections, respectively.

[11] = test system: size of the lesion / retinal thickness in wet AMD (OCT); type: in vivo, human; details: for Treatment Effect Observed?: OCT decrease in size of the lesion
Description: OCT (Optical Coherence Tomography) imaging was used to assess the condition of the region of the macula at the back surface of the treated eye. The OCT technique relies on the measurement of certain properties of light (e.g. echo time, intensity of reflection) that has been directed at the area of study and can measure very small amounts of reflected light. Because these cellular features are essentially transparent it is possible to use OCT methodology to generate three dimensional representations of the area.
The regions of interest were analyzed with a two dimensional representation of the cross section of the retinal wall at one longitudinal scan location of the OCT image. In these “OCT scan” images is it possible to interrogate very local areas of interest more specifically. The OCT scans were carefully selected to directly compare the thickness and anatomical structure of specific sites within a lesion, pre and post treatment, for the purpose of assessing the effect of injected drug including a reduction in sub-retinal fluid.
The OCT images were measured the day after injection and at 2-3 days post injection. […]

[12] = test system: laser photocoagulation treatment-induced Grade IV choroidal neovascularization (CNV) lesions; details: intravitreal injection at all doses tested, cynomolgus monkeys; Z. Yao et al., ARVO 2009; cited from earlier work
[13] = Measured release of ranibizumab 100 mg/mL from devices with porous titanium frit, device half life 250 days, Example B; type: physicochemical; details: for 100 mg/mL Rate, Average: devices with 250 day half life, n = 5
Protocol: The intended RRI was about 0.008 based on gas flow measurements and manufacturing as described herein. The therapeutic device reservoir volume was about 25 uL.
The formulation was filled into five devices and all underwent drug release testing for 180 days.

[14] = Measured release of ranibizumab 40 and 100 mg/mL from devices with porous titanium frit, device half life 100 days, Example A; type: physicochemical; details: for RRI (mm), Mean: 25 uL device, titanium frit about 0.04 in thick, OD about 0.03 in; for 40 mg/mL Rate, Average / 100 mg/mL Rate, Average: devices with 100 day half life, unit not given
Description: No. 2010/0015157, entitled “Antibody Formulations”, the full disclosure of which is incorporated herein by reference.
Devices were fabricated using the following method. A vessel was made from two subassemblies and a porous frit structure as described herein. […] The intended RRI was about 0.02 based on gas flow measurements and manufacturing as described herein. The implantable devices were manufactured in accordance with the teachings as described herein.
Devices were filled with formulation using a 33 G needle (TSK) and a standard tuberculin 1-cc syringe (BD). Excess liquid that had exited the porous sintered frit structure during filling was removed by use of a lab tissue and submerging in phosphate buffered saline (PBS, Sigma) and 0.02% sodium azide as a preservative. Each device was suspended in the center of a 1.5 mL microcentrifuge tube by use of a fixture. The tube was filled with 0.5 mL receiver fluid; i.e., PBS that had been degassed to minimize bubble formation. At selected times, the device was removed from the receiver fluid and placed in a new tube containing fresh receiver fluid. […] For the later time points, the sample concentrations were higher and concentration was determined by UV (Perkin Elmer Lambda 35). Drug release rates were calculated from measured concentration, the volume of the receiver fluid and the duration of the collection interval. Drug release rate profiles were plotted at the average elapsed time for each collection interval. RRI was determined via a least squares fit to the model.
Each formulation was filled into ten devices. Some devices were stopped at 3 and 4 months (n=3 each), leaving four that underwent drug release testing for 180 days.

[15] = Frit #3 (0.038 x 0.029 in), reservoir 37 uL, up to 130 days

For `N[C@@H](CS)C(=O)O` [L-Cysteine], the “pKa of side chain” value [1] is given as 8.28.

For `N=C(N)NCCC[C@H](N)C(=O)O` [L-Arginine], the “pKa of side chain” value [1] is given as 12.0.

With `CC1(C)O[C@@H]2C[C@H]3[C@@H]4CCC5=CC(=O)C=C[C@]5(C)[C@@]4(F)[C@@H](O)C[C@]3(C)[C@]2(C(=O)CO)O1` [triamcinolone acetonide] the solubility [2] was “approximately 19 ug/mL”.

With bevacizumab [Avastin] the “Osm” value [3] was 0.182 M, the RRI ([4]; Table 7: media grade 0.1, O.D. 0.038 in, length 0.029 in) was 0.014 and the RRI ([4]; Table 7: media grade 0.2, O.D. 0.031 in, length 0.049 in) was 0.019. The RRI ([4]; Table 7: media grade 0.2, O.D. 0.038 in, length 0.029 in) was 0.034 and 0.033, the “RRI (mm), Mean” value ([5]; Frit #2 (0.031 x 0.049 in), reservoir 37 uL, up to 130 days) was 0.024 mm and the “RRI (mm), Mean for SS < 2” value ([5]; Frit #2, reservoir 37 uL, up to 130 days) was 0.014 mm. The “RRI (mm)” value [5, 15] was 0.031 mm and 0.030 mm and 0.029 mm and 0.034 mm and 0.044 mm and 0.045 mm, the “RRI (mm), Mean for SS < 2” value ([5]; Frit #3, reservoir 37 uL, up to 130 days) was 0.030 mm and the “determined RRI” value ([5]; Frit #5 (0.038 x 0.029 in, media grade 0.1 um), 25 mg/mL Avastin, 37 C, FIG. 24A) was 0.03. For the same compound, the “determined RRI” value ([5]; Frit #6 (0.038 x 0.029 in, media grade 0.2 um), 25 mg/mL Avastin, 37 C, FIG. 23A) was 0.05 mm, the “RRI (mm)” value ([5]; Table 5A: 16 uL reservoir, 25 mg/mL Avastin, Frit #2 (0.031 x 0.049 in, media grade 0.2 um, 316L SS), 37 C) was 0.018 mm and 0.022 mm and the “RRI (mm)” value ([5]; Table 5A: 33 uL reservoir, 25 mg/mL Avastin, Frit #2 (0.031 x 0.049 in, media grade 0.2 um, 316L SS), 37 C) was 0.015 mm and 0.018 mm. The “RRI (mm), Mean” value ([6]; Frit #2 (0.031 x 0.049 in), reservoir 37 uL, up to 45 days) was 0.02 mm and 0.020 mm, the “RRI (mm), Mean for SS < 2” value ([6]; Frit #2, reservoir 37 uL, up to 45 days) was 0.014 mm and the “RRI (mm), Mean” value ([6]; Frit #3 (0.038 x 0.029 in), reservoir 37 uL, up to 45 days) was 0.034 mm. For the same compound, the “RRI (mm), Mean” value [6, 15] was 0.035 mm, the “RRI (mm)” value ([6]; Frit #3 (0.038 x 0.029 in, media grade 0.2 um), 25 mg/mL Avastin, reservoir 37 uL, 37 C, up to 45 days, single devices) was 0.027 mm and 0.034 mm and 0.033 mm and 0.044 mm and 0.030 mm and 0.043 mm and the “RRI (mm), Mean for SS < 2” value ([6]; Frit #3, reservoir 37 uL, up to 45 days) was 0.030 mm. For the same compound, the “release rate (RRI)” value ([6]; Frit #5, media grade 0.1, reservoir 20 uL, to about 90 days, FIG. 24A-1) was 0.038 mm and the RRI ([6]; Frit #6, reservoir 20 uL, to about 90 days, FIG. 23A-1) was 0.053 mm.

In the case of `N[C@@H](CC(=O)O)C(=O)O` [L-Aspartic Acid], the “pKa of side chain” value [1] is given as 3.8.

In the case of ranibizumab [Lucentis], the “Osm” value [3] is reported as 0.289 M, the “RRI (mm)” value ([7]; frit 0.031 x 0.049 in, media grade 0.1 um, 2 replicates) is reported as 0.014 mm and the “RRI (mm)” value ([7]; frit 0.031 x 0.049 in, media grade 0.2 um, 12 replicates) is reported as 0.021 mm. For the same compound, the “RRI (mm)” value ([7]; frit 0.038 x 0.029 in, media grade 0.1 um, 5 replicates) was 0.039 mm, the “RRI (mm)” value ([7]; frit 0.038 x 0.029 in, media grade 0.2 um, 14 replicates) was 0.061 mm and the “RRI (mm)” value ([7]; frit 0.038 x 0.029 in, media grade 0.3 um, 6 replicates) was 0.090 mm. For the same compound, the “half-life in the vitreous” value [8] was about 220 h, the “Half-life” value ([9]; half-life measured for the monkey, parameter of Simulations 1-5 (Table 4A)) was 63.1 h and the “half-life in the vitreous” value [9] was “two to four”. For the same compound, the “half-life in the vitreous” value ([9]; listed as ranibizumab) was “approximately 3 days”, the “measured rate of release” value ([10]; 40 mg/mL formulation) was 3.5 µg/day and the “measured rate of release” value ([10]; 100 mg/mL formulation) was 8.1 µg/day. For the same compound, the “MIC for a sustained release device” value ([11]; minimum inhibitory concentration in vivo in human patients, indicated by the low dose study) was at most 1 ug per ml, the “Treatment Effect Observed?” value ([11]; single patient, lowest dose administered 10 μg intravitreal) was “Yes” and the “Treatment Effect Observed?” value ([11]; single patients, lowest dose administered 5 μg intravitreal) was “Yes”. The “Treatment Effect Observed?” value ([11]; single patients, lowest dose administered 20 μg intravitreal) was “Yes”, the “development of Grade IV CNV lesions” value [12] was “completely inhibited” and the “RRI (mm), Mean” value ([13]; 100 mg/mL formulation, 25 uL device, titanium frit 0.031 in thick, OD 0.031) was 0.008 mm. For the same compound, the “100 mg/mL Rate, Average” value ([13]; Day 90) was 5.6 µg/day and 5.59 µg/day, the “100 mg/mL Rate, Average” value ([13]; Day 180) was 4.51 µg/day and the “RRI (mm), Mean” value ([14]; 40 mg/mL formulation) was 0.02 mm and 0.024 mm. For the same compound, the “RRI (mm), Mean” value ([14]; 100 mg/mL formulation) was 0.02 mm and 0.021 mm, the “40 mg/mL Rate, Average” value ([14]; Day 90, n = 7) was 5.52 and the “100 mg/mL Rate, Average” value ([14]; Day 90, n = 7) was 9.51. For the same compound, the “40 mg/mL Rate, Average” value ([14]; Day 180, n = 4) was 2.42 and the “100 mg/mL Rate, Average” value ([14]; Day 180, n = 4) was 5.13.
